# From the supplement of paper PMC9428881
# ± gives the standard error.
# Test: background-corrected fluorescence of 3'-dye-labeled ssDNA relative to brightest sequence (3'-GCGCG) (fraction); higher = brighter dye fluorescence (less quenching)
# Outline: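 Subtracting background from unlabeled oligos and scaling to the brightest sequence gave the reported fluorescence. Single-stranded DNA bearing a 3' Cy3 or Cy5 dye next to each of 1024 permuted pentamers was assembled on glass slides by light-directed phosphoramidite synthesis. Following a 2 h r.t. acetonitrile wash, slides were scanned at 532 or 635 nm before and after overnight ethylenediamine/ethanol deprotection, and values were averaged over 10 features per array and at least 3 syntheses.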
Sequence,background-corrected fluorescence (dye: Cy3 (3' terminal)),background-corrected fluorescence (dye: Cy5 (3' terminal))
TTTTTTGATGCGCATCATGCTTTTTTTTTTTTTTTCATGA [AGTAC],0.672 ± 0.026,0.579 ± 0.038
TTTTTTGATGCGCATGAGCATTTTTTTTTTTTTTTCATCT [TCTAC],0.48 ± 0.021,0.33 ± 0.034
TTTTTTGATGCGCATGATCATTTTTTTTTTTTTTTCATCG [GCTAC],0.543 ± 0.018,0.375 ± 0.026
TTTTTTGATGCGCATGATGATTTTTTTTTTTTTTTCATCC [CCTAC],0.38 ± 0.02,0.273 ± 0.017
TTTTTTGATGCGCATGATGCTTTTTTTTTTTTTTTCATCA [ACTAC],0.483 ± 0.034,0.372 ± 0.026
TTTTTTGATGCGCATGCGCATTTTTTTTTTTTTTTCATAT [TATAC],0.501 ± 0.036,0.397 ± 0.025
TTTTTTGATGCGCATGCTCATTTTTTTTTTTTTTTCATAG [GATAC],0.521 ± 0.02,0.422 ± 0.027
TTTTTTGATGCGCATGCTGATTTTTTTTTTTTTTTCATAC,0.443 ± 0.024,0.314 ± 0.032
TTTTTTGATGCGCATGCTGCTTTTTTTTTTTTTTTCATAA [AATAC],0.529 ± 0.021,0.428 ± 0.022
TTTTTTGATGCTCAGCAGCATTTTTTTTTTTTTTTCAGTT [TTGAC],0.598 ± 0.018,0.434 ± 0.015
TTTTTTGATGCTCAGCATCATTTTTTTTTTTTTTTCAGTG [GTGAC],0.61 ± 0.026,0.463 ± 0.025
TTTTTTGATGCTCAGCATGATTTTTTTTTTTTTTTCAGTC [CTGAC],0.477 ± 0.0054,0.373 ± 0.086
TTTTTTGATGCTCAGCATGCTTTTTTTTTTTTTTTCAGTA [ATGAC],0.609 ± 0.021,0.461 ± 0.022
TTTTTTGATGCTCATCAGCATTTTTTTTTTTTTTTCAGGT [TGGAC],0.693 ± 0.045,0.534 ± 0.037
TTTTTTGATGCTCATCATCATTTTTTTTTTTTTTTCAGGG [GGGAC],0.723 ± 0.023,0.574 ± 0.026
TTTTTTGATGCTCATCATGATTTTTTTTTTTTTTTCAGGC [CGGAC],0.571 ± 0.012,0.469 ± 0.032
TTTTTTGATGCTCATCATGCTTTTTTTTTTTTTTTCAGGA [AGGAC],0.705 ± 0.027,0.6 ± 0.034

Sequence,background-corrected fluorescence (dye: Cy3 (3' terminal)),background-corrected fluorescence (dye: Cy5 (3' terminal))
TTTTTTGATGCTCATGAGCATTTTTTTTTTTTTTTCAGCT [TCGAC],0.543 ± 0.022,0.418 ± 0.022
TTTTTTGATGCTCATGATCATTTTTTTTTTTTTTTCAGCG [GCGAC],0.622 ± 0.036,0.502 ± 0.043
TTTTTTGATGCTCATGATGATTTTTTTTTTTTTTTCAGCC [CCGAC],0.462 ± 0.011,0.321 ± 0.042
TTTTTTGATGCTCATGATGCTTTTTTTTTTTTTTTCAGCA [ACGAC],0.514 ± 0.019,0.448 ± 0.027
TTTTTTGATGCTCATGCGCATTTTTTTTTTTTTTTCAGAT [TAGAC],0.576 ± 0.018,0.469 ± 0.021
TTTTTTGATGCTCATGCTCATTTTTTTTTTTTTTTCAGAG [GAGAC],0.595 ± 0.022,0.462 ± 0.03
TTTTTTGATGCTCATGCTGATTTTTTTTTTTTTTTCAGAC,0.451 ± 0.024,0.372 ± 0.017
TTTTTTGATGCTCATGCTGCTTTTTTTTTTTTTTTCAGAA [AAGAC],0.609 ± 0.022,0.471 ± 0.027
TTTTTTGATGCTGAGCAGCATTTTTTTTTTTTTTTCACTT,0.498 ± 0.016,0.351 ± 0.022
TTTTTTGATGCTGAGCATCATTTTTTTTTTTTTTTCACTG [GTCAC],0.487 ± 0.028,0.398 ± 0.035
TTTTTTGATGCTGAGCATGATTTTTTTTTTTTTTTCACTC [CTCAC],0.399 ± 0.017,0.296 ± 0.022
TTTTTTGATGCTGAGCATGCTTTTTTTTTTTTTTTCACTA [ATCAC],0.471 ± 0.014,0.352 ± 0.025
TTTTTTGATGCTGATCAGCATTTTTTTTTTTTTTTCACGT [TGCAC],0.588 ± 0.034,0.473 ± 0.03
TTTTTTGATGCTGATCATCATTTTTTTTTTTTTTTCACGG [GGCAC],0.584 ± 0.023,0.525 ± 0.03
TTTTTTGATGCTGATCATGATTTTTTTTTTTTTTTCACGC [CGCAC],0.536 ± 0.021,0.438 ± 0.036
TTTTTTGATGCTGATCATGCTTTTTTTTTTTTTTTCACGA [AGCAC],0.594 ± 0.013,0.471 ± 0.023
TTTTTTGATGCTGATGAGCATTTTTTTTTTTTTTTCACCT [TCCAC],0.457 ± 0.021,0.326 ± 0.03
